Data: paper PMC12130729, “CD98hc, a novel of galectin-8 receptor, binds to galectin-8 in an N-glycosylation-dependent manner” (Acta Biochimica et Biophysica Sinica, 2025)
Blank lines part the entries; values can stand above or below the molecule they belong to.

Legend:
[1] = target: Extracellular domain of CD98hc (CD98hc-ED), His-tagged (human) (UniProt P08195); test: MST; His-tagged CD98hc-ED (50 nM) labelled with RED-tris-NTA 2nd generation as target; Gal-8, Gal-8N or Gal-8C titrated 50 μM to 12.21 nM (1:1 dilution series); Monolith NT.115, room temperature, LED 60%, MST power medium; KD fit; three independent experiments
[2] = target: T1, Extracellular domain of CD98hc (CD98hc-ED), His-tagged (human, UniProt P08195 105-529, N-glycosylated (glycosylated CD98hc-ED)); test: as above; conditions: both partners purified
T1 construct: CD98hc, human (cDNA from HeLa cells), extracellular domain; the printed primers encode an added start Met followed by RAPRCR, and end with RFPYAA (the C-terminus) followed by six His codons and a stop; His6 and its C-terminal position are read from the reverse primer; the text says only 'with a His-tag'; No signal peptide is encoded by the primers. 'Free CD98hc-ED' is this protein after PNGase F …
T1 sequence (looked up): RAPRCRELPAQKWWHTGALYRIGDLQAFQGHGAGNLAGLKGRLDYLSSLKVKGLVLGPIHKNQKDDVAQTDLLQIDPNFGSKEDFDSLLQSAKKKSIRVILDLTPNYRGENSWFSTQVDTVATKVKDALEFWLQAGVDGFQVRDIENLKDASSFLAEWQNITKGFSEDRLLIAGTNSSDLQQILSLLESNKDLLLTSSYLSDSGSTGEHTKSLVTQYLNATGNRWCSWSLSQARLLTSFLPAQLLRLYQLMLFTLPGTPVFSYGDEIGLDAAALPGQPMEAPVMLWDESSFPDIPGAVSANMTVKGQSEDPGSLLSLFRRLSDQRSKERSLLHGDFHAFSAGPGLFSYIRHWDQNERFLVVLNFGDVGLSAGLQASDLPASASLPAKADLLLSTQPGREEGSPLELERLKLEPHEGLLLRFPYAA

Kd [1]: 1510 nM
Molecule: Recombinant Gal-8 (His-Gal-8) (from UniProt O00214 1-317) (natural protein)

Kd [2]: 220 ± 30 nM
B1: Recombinant Gal-8N (His-Gal-8N) (domain or fragment, human, UniProt O00214 1-152, looked up)
chain: MMLSLNNLQNIIYNPVIPFVGTIPDQLDPGTLIVIRGHVPSDADRFQVDLQNGSSMKPRADVAFHFNPRFKRAGCIVCNTLINEKWGREEITYDTPFKREKSFEIVIMVLKDKFQVAVNGKHTLLYGHRIGPEKIDTLGIYGKVNIHSIGFS
notes: Galectin-8, human, N-terminal carbohydrate recognition domain (Gal-8N); also called N-terminal carbohydrate recognition domain of Gal-8; source: E. coli BL21 (DE3) pLysS, as previously described by Si et al. [9]

Kd [2]: 10700 ± 1690 nM
B2: Recombinant Gal-8C (His-Gal-8C) (domain or fragment, human, UniProt O00214 187-317, looked up)
chain: FAARLNTPMGPGRTVVVKGEVNANAKSFNVDLLAGKSKDIALHLNPRLNIKAFVRNSFLQESWGEEERNITSFPFSPGMYFEMIIYCDVREFKVAVNGVHSLEYKHRFKELSSIDTLEINGDIHLLEVRSW
notes: Galectin-8, human, C-terminal carbohydrate recognition domain (Gal-8C); also called C-terminal carbohydrate recognition domain of Gal-8; source: E. coli BL21 (DE3) pLysS, as previously described by Si et al. [9]
